Reference: patent publication US20240254222A1 (Bayer, published 2024)
Residue numbers refer to the chain shown, from its start. Blank lines part the entries; values can stand above or below the binder they belong to.

Legend:
Experiment in all cases: SPR, captured antibody, Sema3A domain analyte
[1] = molecular target: T1, Dog Semaphorin3A-Sema Domain, TPP-19121 (dog, UniProt Q63548 21-569 (rat entry), limits assumed)
T1 construct: produced inhouse
T1 chain: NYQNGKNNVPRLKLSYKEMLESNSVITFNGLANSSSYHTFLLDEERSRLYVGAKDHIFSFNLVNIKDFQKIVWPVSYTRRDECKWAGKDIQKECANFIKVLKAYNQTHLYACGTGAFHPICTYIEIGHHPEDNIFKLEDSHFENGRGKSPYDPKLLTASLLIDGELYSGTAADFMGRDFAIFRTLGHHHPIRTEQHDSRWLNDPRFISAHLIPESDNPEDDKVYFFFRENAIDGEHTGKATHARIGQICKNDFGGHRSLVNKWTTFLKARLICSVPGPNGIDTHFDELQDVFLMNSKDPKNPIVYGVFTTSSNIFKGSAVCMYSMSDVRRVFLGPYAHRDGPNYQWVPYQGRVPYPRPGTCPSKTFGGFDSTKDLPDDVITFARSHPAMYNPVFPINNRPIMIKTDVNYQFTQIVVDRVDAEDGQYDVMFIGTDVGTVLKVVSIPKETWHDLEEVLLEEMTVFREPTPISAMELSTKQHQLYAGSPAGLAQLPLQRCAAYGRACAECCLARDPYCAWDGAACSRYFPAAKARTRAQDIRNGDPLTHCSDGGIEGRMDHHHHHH
Description: (§1) To assess the binding activity of anti-Sema3A antibodies binding assays were conducted using surface plasmon resonance (SPR). Binding assays were performed on a Biacore T200 instrument (Cytiva) at 25° C. using assay buffer HBS P+, 300 mM NaCl, 0.75 mM CaCl₂, 2.5 mM MgCl₂, 1 mg/ml BSA, 0.05% NaN₃. Antibodies were captured via anti-human Fc IgGs (“Human antibody capture kit”, Order No. BR100839, Cytiva) covalently amine coupled to a Series S CM5 sensor chip (Cytiva). The amine coupling was carried out according to the manufacturer's instructions using 1-ethyl-3-(3-dimethylaminopropyl) carbodiimide hydrochloride (EDC), N-hydroxysuccinimide (NHS) and ethanolamine HCl, pH 8.5 (“Amine Coupling Kit” BR-1000-50, Cytiva.). Human, mouse, cynomolgus, rat, dog and pig monovalent Sema3A domain were used as analytes in a concentration series from 0.024-3.125 nM in multi cycle kinetics mode. The sensor surface was regenerated with glycine pH 2.0 after each antigen injection. Obtained sensorgrams were double referenced (subtraction of reference flow cell signal and buffer injection) and were fitted to a 1:1 Langmuir binding model using the Biacore T200 Evaluation software obtaining the experimental fitted RMax value. To calculate the binding activity first the theoretical RMax needs to be calculated according to equation 1: […]
(§2) Binding activity was determined by dividing the experimental determined RMax by the theoretical calculated RMax according to equation 2: […]

[2] = molecular target: T2, Pig Semaphorin3A-Sema Domain, TPP-20176 (pig, UniProt Q63548 21-569 (rat entry))
T2 construct: produced inhouse
T2 chain: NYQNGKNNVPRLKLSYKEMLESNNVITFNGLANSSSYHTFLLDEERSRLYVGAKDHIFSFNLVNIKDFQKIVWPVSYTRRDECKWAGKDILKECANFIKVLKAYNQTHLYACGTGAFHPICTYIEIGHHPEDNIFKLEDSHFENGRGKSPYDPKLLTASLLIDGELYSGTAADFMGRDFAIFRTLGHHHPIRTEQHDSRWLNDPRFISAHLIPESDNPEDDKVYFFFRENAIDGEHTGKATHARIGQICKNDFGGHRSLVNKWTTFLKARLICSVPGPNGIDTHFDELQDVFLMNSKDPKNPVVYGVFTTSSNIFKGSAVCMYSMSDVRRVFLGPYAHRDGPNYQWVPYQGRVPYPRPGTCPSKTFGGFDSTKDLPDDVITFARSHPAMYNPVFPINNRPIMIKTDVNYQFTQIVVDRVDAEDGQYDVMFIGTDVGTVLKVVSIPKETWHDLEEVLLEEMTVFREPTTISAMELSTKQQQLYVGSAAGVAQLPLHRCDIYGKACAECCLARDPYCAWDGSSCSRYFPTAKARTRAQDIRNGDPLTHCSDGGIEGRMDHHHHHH
Description: as §1, §2

[3] = molecular target: T3, Rat Semaphorin3A-Sema Domain, TPP-19120 (rat, UniProt Q63548 21-569)
T3 construct: produced inhouse
T3 sequence: T2 chain with Q3A, I126V, E138Q, T237S, V303I, I444V, V483I, A486T
Description: as §1, §2

[4] = molecular target: T4, Cyno Semaphorin3A-Sema Domain, TPP-19122 (cynomolgus (Macaca fascicularis), UniProt Q63548 21-569 (rat entry), limits assumed)
T4 construct: produced inhouse
T4 chain: T2 chain with D139N, T237S, S296F, V303I, V483I, A486T, V489I
Description: as §1, §2

B1: TPP-17755 (antibody, human IgG1, lambda, V domains shown)
VH: EVQLLESGGGLVQTGGSLRLSCAASGFTFSDYAMSWVRQAPGKGLEWVSWIYYDSGSKYYADSVKGRFTISRDNSKNTLYLQMNSLRAEDTAVYYCAKLNGDFDYWGQGTLVTVSS
VL: QSVLTQPPSASGTPGQRVTISCSGSSSNIGNNDVSWYQQLPGTAPKLLIYADSHRPSGVPDRFSGSKSGTSASLAISGLRSEDEADYYCGAWDSSLSGYVFGGGTKLTVLG
notes: also called Samsung; Samsung Prior Art F11
Binding Activity [%] [1]: 55%
Binding Activity [%] [2]: 60%
Binding Activity [%] [3]: 56%
Binding Activity [%] [4]: 53%

B2: TPP-30788 (antibody, human IgG1, kappa, V domains shown)
VH: EVQLVESGGGLVQPGGSLRLSCAASGFTFSSYYMSWVRQAPGKGLEWVSTIIKSGGYAYYPDSVKDRFTISRDNSKNTLYLQMSSLRAEDTAVYYCVRGGQGAMDYWGQGTTVTVSS
VL: EIVLTQSPATLSLSPGERATLSCRASQSIGDYLHWYQQKPGQAPRLLIKYASQSISGIPARFSGSGSGTDFTLTITSLEPEDFAVYYCQQGYSFPYTFGGGTKLEIKR
notes: prior art, WO 2020/225400; also called BI clone I; Böhringer (BI) Clone I
Binding Activity [%] [1]: 106%
Binding Activity [%] [2]: 107%
Binding Activity [%] [3]: 109%
Binding Activity [%] [4]: 107%

B6: TPP-11489 (antibody, human IgG1, lambda)
heavy: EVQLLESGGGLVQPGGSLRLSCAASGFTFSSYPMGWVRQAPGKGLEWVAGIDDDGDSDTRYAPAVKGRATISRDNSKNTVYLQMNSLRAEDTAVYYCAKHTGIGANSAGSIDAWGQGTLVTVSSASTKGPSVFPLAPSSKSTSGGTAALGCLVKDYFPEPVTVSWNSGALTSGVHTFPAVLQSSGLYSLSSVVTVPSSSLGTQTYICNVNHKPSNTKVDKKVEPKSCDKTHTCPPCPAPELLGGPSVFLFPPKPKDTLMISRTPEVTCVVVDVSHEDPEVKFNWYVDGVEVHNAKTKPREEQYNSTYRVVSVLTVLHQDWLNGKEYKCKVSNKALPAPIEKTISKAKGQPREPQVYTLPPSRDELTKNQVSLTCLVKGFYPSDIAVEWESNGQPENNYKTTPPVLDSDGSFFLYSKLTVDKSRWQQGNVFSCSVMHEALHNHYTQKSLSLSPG
light: SYELTQPPSVSVSPGQTARITCSGGGSYTGSYYYGWYQQKPGQAPVTVIYYNNKRPSDIPERFSGSLSGTTNTLTISGVQAEDEADYYCGSADNSGDAFGTGTKVTVLGQPKAAPSVTLFPPSSEELQANKATLVCLISDFYPGAVTVAWKADSSPVKAGVETTTPSKQSNNKYAASSYLSLTPEQWKSHRSYSCQVTHEGSTVEKTVAPTECS
notes: human IgG1; also called Chiome; Chiome Prior Art (hIgG1)
Binding Activity [%] [1]: 22%
Binding Activity [%] [2]: 77%
Binding Activity [%] [3]: 31%
Binding Activity [%] [4]: 13%

B8: TPP-15370 (antibody, human IgG1, lambda, V domains shown)
VH: EVQLLESGGGLVQPGGSLRLSCAASGFTFSSYGMHWVRQAPGKGLEWVSAIGTGGDTYYADSVMGRFTISRDNSKNTLYLQMNSLRAEDTAVYYCARRDDYTSRDAFDVWGQGTLVTVSS
VL: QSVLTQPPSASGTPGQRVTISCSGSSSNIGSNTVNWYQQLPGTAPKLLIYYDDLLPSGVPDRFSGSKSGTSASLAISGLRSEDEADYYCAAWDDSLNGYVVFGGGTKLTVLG
notes: human IgG1; also called IgG1, hit from panning; parental mAb
Binding Activity [%] [1]: 114%
Binding Activity [%] [2]: 111%
Binding Activity [%] [3]: 113%
Binding Activity [%] [4]: 139%

B9: TPP-15374 (antibody, human IgG1, lambda, V domains shown)
VH: EVQLLESGGGLVQPGGSLRLSCAASGFTFSSYEMNWVRQAPGKGLEWVSGISWNSGSIGYADSVKGRFTISRDNSKNTLYLQMNSLRAEDTAVYYCARSGYSSSWFDPDFDYWGQGTLVTVSS
VL: QSVLTQPPSASGTPGQRVTISCTGSSSNIGAGYDVHWYQQLPGTAPKLLIYGNSNRPSGVPDRFSGSKSGTSASLAISGLRSEDEADYYCSSYAGSNPYVVFGGGTKLTVLG
notes: as for B8
Binding Activity [%] [1]: 98%
Binding Activity [%] [2]: 103%
Binding Activity [%] [3]: 94%
Binding Activity [%] [4]: 104%

More lines, now with the values ahead:

Binding Activity [%] [1]: 106%
Binding Activity [%] [2]: 105%
Binding Activity [%] [3]: 109%
Binding Activity [%] [4]: 107%
B3: TPP-30791 (antibody, human IgG1, kappa, V domains shown)
VH: B2 VH with V12L, P14L, Y80N, S84N, R98K
VL: B2 VL with T76S
notes: prior art, WO 2020/225400; also called BI clone IV; Böhringer (BI) Clone IV

Binding Activity [%] [1]: 102%
Binding Activity [%] [2]: 103%
Binding Activity [%] [3]: 104%
Binding Activity [%] [4]: 103%
B4: TPP-30789 (antibody, human IgG1, kappa, V domains shown)
VH: B2 VH with T28P
VL: B2 VL
notes: prior art, WO 2020/225400; also called BI clone II; Böhringer (BI) Clone II

Binding Activity [%] [1]: 92%
Binding Activity [%] [2]: 92%
Binding Activity [%] [3]: 94%
Binding Activity [%] [4]: 92%
B5: TPP-30790 (antibody, human IgG1, kappa, V domains shown)
VH: B2 VH with P14L, S84N, R98K
VL: B2 VL with K49Y, T76S
notes: prior art, WO 2020/225400; also called BI clone III; Böhringer (BI) Clone III

Binding Activity [%] [1]: 107%
Binding Activity [%] [2]: 107%
Binding Activity [%] [3]: 108%
Binding Activity [%] [4]: 106%
B7: TPP-23298 (antibody, human IgG4 S228P, lambda, V domains shown)
VH: B8 VH with S30Y, G33A, H35S, M64K, V109Y
VL: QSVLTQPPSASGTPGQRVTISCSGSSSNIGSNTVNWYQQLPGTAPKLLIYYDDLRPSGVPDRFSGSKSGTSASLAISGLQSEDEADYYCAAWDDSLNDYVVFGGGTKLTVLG
